Results: patent US20250179155A1 (VANDERBILT UNIVERSITY, published 2025)

B1: B0E2 (VHH)
VHH: QVQLQESGGGLVLPGGSLRLSCAASGTVFKIYVMGWYRQAPGKQRELVATISNGGTPNYADSVKGRFTISGDRAKNTVFLQMSSLNVEDTAVYYCNRRQLEGRQSEDYWGQGTQVTVSS
B2: A2A8 (VHH)
VHH: QVQLQESGGGLVQAGDSLRLSCTASGGTFSSYSIGWFRQAPGLEREFVALITWRNNTYLGDSVRERFAISRDNAKNTVYLQMNSLKPEDTAVYSCAARERRVARIQEFDYWGQGTQVTVSS
B3: B0B7 (VHH)
VHH: QVQLQESGGGSVQPGGSLRLSCAASGSIYGMMMMAWYRQRTGEQRELVANFTRDGSTNYVDSVKGRFTISRDNDKKMVYLQMKDLKPEDTAVYYCNIQRYWGKGTAVTVSS
B4: A2F10 (VHH)
VHH: QVQLQESGGGLVQPGGSLRLSCAASGRSFSSGAMGWFRQAPGKEREFVGVGWSGGLIDYAASVRGRFTITRDKAKNTVYLRMDSLRPEDTAVYYCAINSANSCAGYDCHDKPQVYDYWGQGTQVTVSS
B5: A1D1 (VHH)
VHH: QVQLQESGGGLVQAGGSLRLSCAASGRTFSTHTMAWFRQAPGKEREFVTGIRWSDGMTIYADSVKGRFTISRDKATNTMYLEMNTLKPDDTAVYYCGAGPTMYHPTYWGQGTQVTVSS
B6: B0C10 (VHH)
VHH: QVQLQESGGGLVQPGGSLRLSCTASGFTRKHYTIGWFRQAPGKEREGVSCITTPDNSTYYKDSVKGRFTISRDNAKNTVYLQMNNVKPEDTAVYYCGASALGGSSCAQSSSVLHRLFQWGQGTQVTVSS
B7: B2C11 (VHH)
VHH: QVQLQESGGGLVHVGESLTLSCVAPGSIFGVNTMAWYRQAPGKQRELVAAISPGGYTNYAEFVKGRFGISRDKAKNTVYLQMNDLKPEDTAVYYCNYRSGTSRPNTNWGQGTQVTVSS
B8: A1C4 (VHH)
VHH: QVQLQESGGGLVQPGGSLRLSCAASGRSFSINTMGWYRQAPGNKRDMVATITTGGNTNYADSVKGRFTISRDNAKNTVYLQMNSLKPEDTAVYYCRTVVVTPYPDEFEYDYWGQGTQVTVSS
B9: A1H1 (VHH)
VHH: QVQLQESGGGLVQAGGSLRLSCAASGGTFSKTSVGWFRQAPGLEREFVALITWSGNTYFVDSVRERFAISRDNAENTVYLQMNSLEPEDTAVYYCAARERTAARIQEFDYWGQGTQVTVSS
B10: A1C11 (VHH)
VHH: QVQLQESGGGLVQAGDSLRLSCAASGRTFSRYAMGWFRQAPGKEREFVAAISWSGGTTYYADSVKGRFTISRDNAKNTVYLQMNSLKPEDTAVYYCAAGLFRGDLTRFKLDEYDYRGQGTQVTVSS
B11: A2C2 (VHH)
VHH: QVQLQESGGGLVQTGGSLRLSCTASGRTFSRYAMGWFRQASGKEREFVAAISYSGGTTYYSDSVKGRFTISRDNAKSTVSLQMNSLKPEDTAVYYCAAGLFRGDLTRFTLDEYDYRGQGTQVTVSS
B12: A2F12 (VHH)
VHH: QVQLQESGGGLVQAGGSLRLSCAASGRTFSRYAMGWFRQAPGKEREFVAAISWSGDTTYDADSVKGRFTVSRDNAKNTVYLQMNSLKPEDTAVYYCAAGLFRGDLTKFELDEYDYRGQGTQVTVSS
B13: A1D8 (VHH)
VHH: QVQLQESGGGLVQAGGSLRLSCVASGGTFSRYALGWFRQAPGKEREFVAAISYSGATTYYADSVKGRFTISRDNAKNTVFLQMNSLKPEDTAVYYCAAGFFRGDLTKFKLDEYDYRGQGTQVTVSS
B14: B2C5 (VHH)
VHH: QVQLQESGGGLVQPGGSLRLSCAASGLTSGTYVMSWFRQAPGKEREFVAAIRDAGGIRNYADSVKGRFTISRDAAKNMIFLQMNSLKPEDTAVYYCKFLRLPESLAYWGQGTQVTVSS
B15: A2B5 (VHH)
VHH: QVQLQESGGGLVQAGGSLRLSCTPSERTFSAYTMAWYRQPPGKEREFAAGIKWSGSGGITLYADSVKGRFTISGDNAKSTVYLEMNSLKPEDTAVYYCTAGPTVYNPHYWGQGTQVTVSS
B16: A2B10 (VHH)
VHH: QVQLQESGGGTVQPGGSLRLSCAASGRDFSSGAMGWFRQTPGNEREFVGVGWSGGLIDYSDSVKGRFTITRDKLKNEVYLRMDRLKPEDTAVYFCAVNSANSCAGYDCHDKPQTYNYWGQGTQVTVSS
B17: A1H5 (VHH)
VHH: QVQLQESGGGLVQPGGSLRLSCAASGSIFSINAMGWYRQAPGKQRELVASITSGGSTNYADSVKGRFTISRDGAKNTVYLQMNSLKPEDTAVYYCHVPWTDDFGWAVKDYWGQGTQVTVSS
B18: A2H4 (VHH)
VHH: QVQLQESGGGLVQPGGSLRLSCAASGSIFSINAMGWYRQAPGKQRELVAKITSGGTTNYADSVKGRFTISRDGAKNTVYLQMNSLKPEDTAVYYCNLPWTSDLGWAVKDYWGQGTQVTVSS
B19: B0B11 (VHH)
VHH: QVQLQESGGGLVQPGGSLRLSCATSGFYFPNYAMSWHRQAPGQERELVARITSAGGSTDYADSVKGRFTISRDNSKNTVYLQMNGLISEDTAVYYCNADPSYGTRYWGQGTQVTVSS
B20: B1E7 (VHH)
VHH: QVQLQESGGGLVQPGGSLRLSCAASGSLRSGYVMSWHRQAPGKQRELVASITTGDITQYGASVKGRFTISRDETKNMGWLQMNSLLPEDTAVYYCKITELPTVSVYWGQGTQVTVSS
B21: A1C1 (VHH)
VHH: QVQLQESGGGLVQAGGSLRLSCAASGGTFSSYSVGWFRQAPGLEREFVGMITWRGITYFEDFVKDRFNISRDNAKNTVYLQMNSLKPEDTAVYSCAARDRRAARIQEFDYWGQGTQVTVSS
B22: B0A9 (VHH)
VHH: QVQLQESGGGLVQPGGSLRLTCTSSTSINIYPYMGWYRQAPGKQRERVATVNRDGNTNYLDSVKGRFTITRDDAKKTICLQMNNLEPEDTAVYYCNNFGSSSWGQGTQVTVSS
B23: A2A6 (VHH)
VHH: QVQLQESGGGLVQAGGSLRLSCADSGRTFSRYEMGWSRQAPGKEREFVAVINRLGRSTYYADSVKGRFTISRDNAKNTVYLQMNSLKPEDTAVYYCAAGVRLNLPQIPDVIDFWGQGTQVTVSS
B24: B1C10 (VHH)
VHH: QVQLQESGGGLVQPGGSLRLSCLASGLSLSTDVMSWFRQAPGKERELVAGIRSAGWITNYADSVKGRFTISVDSAKNTVYLQMNSLKPEDTAVYYCKVLRLPDGLAFWGQGTQVTVSS
B25: A1G6 (VHH)
VHH: QVQLQESGGGLVQPGGSLRLSCAASGRAFSSYAMGWFRQTPGKEREFVAVISWSGGSTYYADSVKGRFTISRDNTKNMVYLQMMSLKPEDTAVYYCAADFSQPLLATVPDDYDYWGQGTQVTVSS
B26: B0D11 (VHH)
VHH: QVQLQESGGGLAQPGGSLRLSCAASGFTFSHAVMSWFRQAPGKERELVAGWRSAGGITNYADSVKGRFTISGDNAKDVVYLQMNSLKPEDTAVYYCKAFVVGSAYWGQGTQVTVSS

Columns and labels:
[1] = biological target: full-length TcdB (TcdB1-2366), VPI10463 (Clostridioides difficile strain VPI10463, UniProt P18177 1-2366); test: cell-based or functional assay
[2] = biological target: full-length TcdA (TcdA1-2710) (Clostridioides difficile strain VPI10463, UniProt P16154 1-2710); test: cell-based or functional assay
TcdA-GTD (TcdA1-542) = biological target: T1, TcdA-GTD (TcdA1-542) (Clostridioides difficile strain VPI10463, UniProt P16154 1-542); test: ELISA-like screen of clone lysates on isolated domains
T1 construct: range 1-542; also called TcdA glucosyltransferase domain

Chain of full-length TcdB (TcdB1-2366), VPI10463 (P18177 whole entry): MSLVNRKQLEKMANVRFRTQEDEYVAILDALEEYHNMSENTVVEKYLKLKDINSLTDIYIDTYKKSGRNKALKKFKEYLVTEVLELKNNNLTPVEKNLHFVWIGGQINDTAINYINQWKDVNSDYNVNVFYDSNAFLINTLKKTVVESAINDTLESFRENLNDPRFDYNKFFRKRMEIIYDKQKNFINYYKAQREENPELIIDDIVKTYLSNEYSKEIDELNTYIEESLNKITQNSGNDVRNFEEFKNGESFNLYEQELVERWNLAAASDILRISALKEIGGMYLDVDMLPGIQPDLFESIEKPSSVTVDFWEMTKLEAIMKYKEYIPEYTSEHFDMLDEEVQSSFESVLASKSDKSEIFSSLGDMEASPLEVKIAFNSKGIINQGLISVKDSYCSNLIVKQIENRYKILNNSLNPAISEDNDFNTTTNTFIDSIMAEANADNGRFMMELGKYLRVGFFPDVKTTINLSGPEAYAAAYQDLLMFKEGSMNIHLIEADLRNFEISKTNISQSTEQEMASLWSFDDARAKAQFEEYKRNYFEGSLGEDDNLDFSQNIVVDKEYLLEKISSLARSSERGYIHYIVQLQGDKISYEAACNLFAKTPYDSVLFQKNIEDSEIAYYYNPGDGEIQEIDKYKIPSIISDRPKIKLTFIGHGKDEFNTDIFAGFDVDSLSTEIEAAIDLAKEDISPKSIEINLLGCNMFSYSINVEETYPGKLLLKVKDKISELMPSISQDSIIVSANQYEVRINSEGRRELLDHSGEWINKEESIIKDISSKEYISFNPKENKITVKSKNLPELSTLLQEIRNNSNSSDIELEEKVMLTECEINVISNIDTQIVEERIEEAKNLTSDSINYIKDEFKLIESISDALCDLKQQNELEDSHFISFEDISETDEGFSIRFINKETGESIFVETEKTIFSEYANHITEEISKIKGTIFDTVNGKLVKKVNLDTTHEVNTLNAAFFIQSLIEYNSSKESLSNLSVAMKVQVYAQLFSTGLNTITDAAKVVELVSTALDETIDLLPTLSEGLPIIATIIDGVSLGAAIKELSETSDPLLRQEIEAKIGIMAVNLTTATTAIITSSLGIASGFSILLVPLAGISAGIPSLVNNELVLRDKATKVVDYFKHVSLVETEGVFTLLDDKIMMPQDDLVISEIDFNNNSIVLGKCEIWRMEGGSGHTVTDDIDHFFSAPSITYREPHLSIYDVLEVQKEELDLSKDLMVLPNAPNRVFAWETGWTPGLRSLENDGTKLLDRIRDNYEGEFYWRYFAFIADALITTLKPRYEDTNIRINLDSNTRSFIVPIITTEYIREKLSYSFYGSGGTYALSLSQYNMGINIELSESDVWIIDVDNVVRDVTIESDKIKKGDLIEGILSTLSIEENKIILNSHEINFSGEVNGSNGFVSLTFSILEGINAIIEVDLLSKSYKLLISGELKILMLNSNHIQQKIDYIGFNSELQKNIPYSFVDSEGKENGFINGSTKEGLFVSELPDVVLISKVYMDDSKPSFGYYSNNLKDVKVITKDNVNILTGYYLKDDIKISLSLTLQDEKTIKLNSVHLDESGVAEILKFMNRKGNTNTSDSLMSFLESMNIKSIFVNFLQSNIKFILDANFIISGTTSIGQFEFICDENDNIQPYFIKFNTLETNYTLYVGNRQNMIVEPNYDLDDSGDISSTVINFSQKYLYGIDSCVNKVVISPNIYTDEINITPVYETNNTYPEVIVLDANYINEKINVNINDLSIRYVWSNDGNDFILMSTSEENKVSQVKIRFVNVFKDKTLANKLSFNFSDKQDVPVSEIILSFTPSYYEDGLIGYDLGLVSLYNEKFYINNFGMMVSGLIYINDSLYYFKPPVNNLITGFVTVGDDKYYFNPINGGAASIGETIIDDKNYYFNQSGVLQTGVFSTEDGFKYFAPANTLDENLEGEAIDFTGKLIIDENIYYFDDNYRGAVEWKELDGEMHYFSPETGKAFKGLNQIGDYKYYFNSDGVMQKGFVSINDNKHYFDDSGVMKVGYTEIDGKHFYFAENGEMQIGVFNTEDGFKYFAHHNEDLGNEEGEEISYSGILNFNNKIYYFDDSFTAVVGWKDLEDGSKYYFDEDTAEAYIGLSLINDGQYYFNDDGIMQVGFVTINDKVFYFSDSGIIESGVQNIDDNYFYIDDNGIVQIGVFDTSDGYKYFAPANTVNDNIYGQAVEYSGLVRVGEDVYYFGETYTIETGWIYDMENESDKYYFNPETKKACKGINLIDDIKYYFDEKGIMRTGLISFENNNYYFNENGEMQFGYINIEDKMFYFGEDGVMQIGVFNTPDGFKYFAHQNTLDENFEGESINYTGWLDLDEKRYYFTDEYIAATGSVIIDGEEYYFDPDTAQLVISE
Chain of full-length TcdA (TcdA1-2710) (P16154 whole entry, the tested form may be a part): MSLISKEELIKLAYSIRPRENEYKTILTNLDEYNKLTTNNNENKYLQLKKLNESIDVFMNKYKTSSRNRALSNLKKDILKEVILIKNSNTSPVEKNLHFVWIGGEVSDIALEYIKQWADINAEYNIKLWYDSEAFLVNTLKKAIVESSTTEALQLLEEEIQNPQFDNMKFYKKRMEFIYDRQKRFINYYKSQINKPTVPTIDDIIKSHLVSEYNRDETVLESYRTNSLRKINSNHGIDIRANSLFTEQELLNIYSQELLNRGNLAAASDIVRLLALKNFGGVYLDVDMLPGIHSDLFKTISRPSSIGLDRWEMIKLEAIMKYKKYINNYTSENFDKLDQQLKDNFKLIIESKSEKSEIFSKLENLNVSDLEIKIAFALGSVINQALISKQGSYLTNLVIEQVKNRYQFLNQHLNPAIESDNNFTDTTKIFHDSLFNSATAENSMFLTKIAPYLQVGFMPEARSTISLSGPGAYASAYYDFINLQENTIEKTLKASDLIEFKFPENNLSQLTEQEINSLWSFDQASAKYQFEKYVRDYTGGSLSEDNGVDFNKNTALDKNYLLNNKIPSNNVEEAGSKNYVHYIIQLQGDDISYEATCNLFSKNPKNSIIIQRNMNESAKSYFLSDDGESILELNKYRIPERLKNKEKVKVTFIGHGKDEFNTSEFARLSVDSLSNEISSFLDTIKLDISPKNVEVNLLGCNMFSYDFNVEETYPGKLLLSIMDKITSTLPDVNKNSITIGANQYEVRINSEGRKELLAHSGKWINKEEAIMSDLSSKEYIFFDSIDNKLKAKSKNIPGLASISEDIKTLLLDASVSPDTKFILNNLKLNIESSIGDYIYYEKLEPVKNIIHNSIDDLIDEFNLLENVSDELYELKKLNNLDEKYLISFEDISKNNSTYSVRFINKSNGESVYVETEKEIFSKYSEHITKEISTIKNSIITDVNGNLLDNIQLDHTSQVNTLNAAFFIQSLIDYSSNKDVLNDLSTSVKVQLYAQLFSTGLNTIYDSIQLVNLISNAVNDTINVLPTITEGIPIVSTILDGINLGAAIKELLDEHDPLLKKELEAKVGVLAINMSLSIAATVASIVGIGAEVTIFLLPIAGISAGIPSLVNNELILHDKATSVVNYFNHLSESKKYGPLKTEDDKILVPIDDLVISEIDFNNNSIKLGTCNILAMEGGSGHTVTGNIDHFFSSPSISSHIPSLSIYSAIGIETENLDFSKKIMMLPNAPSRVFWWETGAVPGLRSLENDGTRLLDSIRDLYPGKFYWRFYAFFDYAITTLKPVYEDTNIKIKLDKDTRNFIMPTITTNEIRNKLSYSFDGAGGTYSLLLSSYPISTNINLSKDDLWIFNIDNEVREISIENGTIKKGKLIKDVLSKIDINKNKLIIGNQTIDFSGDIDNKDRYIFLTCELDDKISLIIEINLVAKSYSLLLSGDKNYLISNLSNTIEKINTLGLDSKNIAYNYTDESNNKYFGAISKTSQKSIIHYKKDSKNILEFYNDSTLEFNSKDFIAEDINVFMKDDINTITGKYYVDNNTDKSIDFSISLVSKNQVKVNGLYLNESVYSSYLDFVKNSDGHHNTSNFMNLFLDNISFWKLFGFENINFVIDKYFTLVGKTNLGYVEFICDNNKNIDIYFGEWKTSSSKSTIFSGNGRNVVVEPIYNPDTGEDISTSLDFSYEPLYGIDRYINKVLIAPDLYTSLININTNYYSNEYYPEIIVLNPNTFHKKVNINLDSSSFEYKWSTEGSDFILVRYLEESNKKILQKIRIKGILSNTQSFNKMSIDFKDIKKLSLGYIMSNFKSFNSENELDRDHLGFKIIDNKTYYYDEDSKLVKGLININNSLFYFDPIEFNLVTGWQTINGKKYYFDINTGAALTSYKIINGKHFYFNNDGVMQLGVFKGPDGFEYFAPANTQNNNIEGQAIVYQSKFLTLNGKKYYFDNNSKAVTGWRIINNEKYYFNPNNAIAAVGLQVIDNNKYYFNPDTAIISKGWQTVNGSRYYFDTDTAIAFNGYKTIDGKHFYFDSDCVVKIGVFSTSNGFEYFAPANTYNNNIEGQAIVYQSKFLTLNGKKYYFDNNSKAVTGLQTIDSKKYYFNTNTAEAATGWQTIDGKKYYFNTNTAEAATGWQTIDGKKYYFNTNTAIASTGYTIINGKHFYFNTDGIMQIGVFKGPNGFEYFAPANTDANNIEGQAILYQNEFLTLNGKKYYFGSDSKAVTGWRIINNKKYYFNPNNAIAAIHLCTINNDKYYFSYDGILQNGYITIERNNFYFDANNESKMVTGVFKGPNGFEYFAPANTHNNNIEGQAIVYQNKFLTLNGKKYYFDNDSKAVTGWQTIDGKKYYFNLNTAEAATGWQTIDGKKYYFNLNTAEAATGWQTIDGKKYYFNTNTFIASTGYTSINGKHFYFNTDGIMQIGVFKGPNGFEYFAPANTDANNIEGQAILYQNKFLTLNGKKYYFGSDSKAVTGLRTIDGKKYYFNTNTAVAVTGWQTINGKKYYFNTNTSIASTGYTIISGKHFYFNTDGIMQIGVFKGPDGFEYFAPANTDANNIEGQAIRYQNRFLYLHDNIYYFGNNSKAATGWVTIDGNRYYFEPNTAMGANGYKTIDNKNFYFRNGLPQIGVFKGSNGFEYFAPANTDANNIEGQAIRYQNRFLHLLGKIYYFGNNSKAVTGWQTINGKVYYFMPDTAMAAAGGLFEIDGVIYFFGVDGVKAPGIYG

| Binder | EC50 (nM), TcdB neutralization, Vero cells [1] [nM] | EC50 (nM), TcdA neutralization, T84 cells [2] [nM] | binding result (TcdA-GTD (TcdA1-542)) | EC50 (nM), TcdA neutralization, Vero cells [2] [nM] | also measured |
| --- | --- | --- | --- | --- | --- |
| B1 | 28 |  |  |  | EC50 (nM), TcdB neutralization, Caco-2 cells [1]: < 1 nM |
| B2 |  |  |  |  | EC50, TcdA neutralization, T84 cells [2]: > 10000 nM |
| B3 | < 1 |  |  |  |  |
| B4 |  | 455 |  |  |  |
| B5 |  |  | no binding |  |  |
| B6 | 1.3 |  |  |  | EC50 (nM), TcdB neutralization, Caco-2 cells [1]: < 1 nM |
| B7 | < 1 |  |  |  |  |
| B8 |  | 60.3 | no binding | 2.5 |  |
| B9 |  |  |  |  | EC50, TcdA neutralization, T84 cells [2]: > 10000 nM |
| B10 |  | 10.4 | no binding | < 1 |  |
| B11 |  | 2.4 | no binding | < 1 |  |
| B12 |  | 1.1 | no binding | < 1 |  |
| B13 |  | 2.1 | no binding | < 1 |  |
| B14 | < 1 |  |  |  |  |
| B15 |  |  | no binding | 11.1 |  |
| B16 |  | 678 |  |  |  |
| B17 |  |  | no binding | 15.7 |  |
| B18 |  | 838 | no binding | 40.9 |  |
| B19 | 350 |  |  |  | EC50 (nM), TcdB neutralization, Caco-2 cells [1]: 161 nM |
| B20 | 10 |  |  |  |  |
| B21 |  |  |  |  | EC50, TcdA neutralization, T84 cells [2]: > 10000 nM |
| B22 | 12.9 |  |  |  | EC50 (nM), TcdB neutralization, Caco-2 cells [1]: 1.3 nM |
| B23 |  | 91 | no binding | 1 |  |
| B24 | 2.2 |  |  |  |  |
| B25 |  |  | no binding | 6.4 |  |
| B26 | 176 |  |  |  | EC50 (nM), TcdB neutralization, Caco-2 cells [1]: 111 nM |
